Assay: soluble fraction after stress (log2 fold change); higher = more stays soluble; pooled small domains, quantitative proteomics
Conditions: stress: pH 4
Method in brief: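 High-throughput quantitative proteomics was run on pooled custom libraries of small protein domains following pH 4 stress. Fold changes are on a log2 scale; higher values mean more of a domain remained soluble. The fold change in soluble amount is taken as a measure of aggregation propensity.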

Sequence	soluble fraction (log2)
HMDLAENWKDDADITLAEYNAIRSRYKPGKLHRDTEFMIARDMLIRPETVLAIAHSRFSNVHTHPV	-0.771
HMDLDEELDFLSDADESATKLDLARAYIDMGDKDGARDILAEVLEEGRSEQKREAQALLDSI	-1.76
HMDLDPVEKLHLLSQLYVGQLKGSFVVKEKNQKTTIIGEVRELSHQTLSIRTNEGYRLIEVADILEIRLWE	-0.362
HMDLDYSGIMNVLNQKYHITFYNNKKIQNLMPKLMIIMGYNSIINEIGHSKSLKALINSFEEKLKSYILT	-0.403
HMDLEGLSNKELVTLRGQIQDDLNKWATEVGIIDPKNRPDDYNRALQSLEDAKRQRSAIDAKL	-0.38
HMDLEIENYDLREILNLFKLDYNFDNVDLKRAQKIALKTHPDKSNLPKEYFMFFMKAFQIVQQIYYYRY	-1.09
HMDLFREERRQAILDWLATAGRVSVAELSASFGVSEVTVRADLQALADRRLVVRTHGGAMMAG	-0.955
HMDLHSQVFESYERKIREVLREGPLTFEEILHAFALKRHETVAQVITYLMDEGKMSDSGDGKLIYSG	-0.295
HMDLIISDIRMPEMRGDDFLEWIKANELFKHIPVIMLSSEDSTTERIRLLEIGAEDYIVKPFNPMELKIR	-1.01
HMDLLIFSPSLGQHVRDLKRVIDRLHQHGIPVRWQKAKLLREEIEYIGWTWKSGGLIDPTNV	0.337
HMDLMSTNEKLLYTMRYLISKSLDGAITEEEIRRLDRLIIENSQARAYYVEYLQIHTHLRKLMQQNPELK	-1.15
HMDLRIIKTKKAIKTAFLNLLKENKYHNITISAISETALINRKTFYAHYETKDELYADVIEDALRVLSP	-1.04
HMDLRIKEIMSERNVTSAWLAEKVGISKVAVSNIVTGKSSPSLDNLLKIADALNVSITTLIG	0.305
HMDLRYKVQYNFIDQGMMTKDELLKFSLNQDDVSKIAVFDNDSKQWKEIYAITEISEKLGIS	-1.57
HMDLTIEQTTVLGKRLFSNALNSLGKKQRNIKKDAIESLLKRMNLKDMDQLYESIGIGDKSPLLMAQILL	0.0239
HMDLVIALNSRIRVIREPFFGKLGTVIDLPHKLHKMESGTMTRVAKIKFDDRTEEIIPRTNLEVILS	-0.35
HMDLYEILGVRRGAGGGEIRRAYRRLARRYHPDVNPGDREAQARYALITRAFETLNDPERRRAYDAGVP	0.0754
HMDMAENEEYKVIMGQAQQLAEQFFPADDNTRRIMLGQLKLENYSLYLLTKQILDEATKGQAAAAN	-0.651
HMDNFDVVLTSPGDQKVQVIKAVRSITGLGLKEAKDLVDGAPNTVKEGVKKLDAEEMLKQLTEAGATGEL	-0.366
HMDNFQFIGYSQQQGQIAVAWIKSLDNGRLVRVEVSDSLEGWRVSDISAQGVNLTKGQQWLMLKRL	-1.37
HMDNIGKTLGQNQTRQYKVAYAEAAKLPAIIMGLVPLPKPPVVDERLRSLYVTATPEQHRQIETLMNRI	-0.64
HMDNITIYSSNGKIYVNAIGGEKIELFNITGQKVAEKVAVSGINVLDAVYDITLVKVGSKVVKVV	-1.41
HMDNLATRILKELNNNDGFLPLSDKSQPEAIYQAFGISKKSYKTAIGTLYKKRLITISENGIQLTD	-0.2

Sequence	soluble fraction (log2)
HMDNLSQMQERILEFIIRSKDQSGYTPSLREIGDEVGLKAVSSVKYQLEQLKDAHYISFDANTARAIRVLI	-0.438
HMDNMFVEERQALIYEELQSNGRVRVKDLSKKFNVSEDLIRKDLNVLEKEGKLRKIYGGAVLAK	0.071
HMDNNNQAAFMGALNSLKEYAKVNGNIVTKQDVESYFKDLGLDDSKYQMITGYLLANDITVKG	-0.0847
HMDNQYGVYSDEKNNVEIHWKRIDHPSVAKDHLDIEAYQNGKRVDINNQQADHYRYLINQEMNE	0.226
HMDPAFAQHHDRALSILHSRGYEVHDSDTDLHWARPVLEFEAYKGSLEYKIVMSYPDLNIIEERVD	-0.685
HMDPASYEARLSTLREQGAQQLDPVRFQYLATLAQRLPTQTPGVALILANKLRAGLSDYEQRLSEAGS	-0.0623
HMDPDAIVSKGQLGALNNAIGRFIAQGGSQTVVDKGIAKRNPNAKKPADLTNSQAESLEAAILKILNG	0.121
HMDPLGALSDRERQVLALIGQGHGLQAIADQLGVSYKTAANTSSALKKKLGVDGINGLMKFALDSG	0.023
HMDPLGGFTKGDVDMDGRVAVNDAVMVLKNAIKLMELDTQQLMLADADNDGKITVNDAVMILKKAIKLID	-0.478
HMDPTLFRLNILEGLGLEKKNLTSEEQEQLRFLYEHFSMKEILMTIDYIKKLNLEKSIVNLYRLMQHP	-0.581
HMDPTVEENKLNPRDLLIIQRVKEGRTNKEIAEELNVAEITVKKQLSSLYQRYKVHNRNQLLLALD	0.245
HMDPVQLEVIKKLNLLNAQKPKDIYALRDVLSEMFPQSDIRLLLKELLDKGYIYWNGHEVIYSHEMF	-0.431
HMDPYEYQLELEKLINNATELNKKYNYDPLKDKILAADAVKNSLETYVLQNYIVALENEIKQTLNQYQIL	-0.754
HMDQNDYMLTRIRNGQMRNKVSVSMPASKIKSAIAAVLKDEGYIENFALNDSSGKPSLIVNLKYYAGQPV	-0.0771
HMDQPVIDVREFGARGDGKQDDAPAIQAAVRLAEQLGGGRVVVPATREFYLLGSTIRIRGHHVTLTGPGAR	0.0605
HMDRAIAAHLEARVRDALKQLSPEQTRVIELFFFDNKTHAEIENDLKIPLGTVKSRLRLALNKLRASL	-0.234
HMDRASGEEEALKEAEDAISRVWEFDGPVELNPQNSYLRRLQHELASRYNVKSVSIGQEPNRRVVYYK	-0.428
HMDRDPAEAGYDDGYLSGNTDGMNNDERATYDESSQYPTPDERQSYAAAYRRGYAAGFADGRKQAV	-0.138
HMDREIVEAIVPLEAAGKRFDAALAEMFPEFSRSRLTEWIKAGDALLAGEIVKPKVSVRGGEAVSLSIRV	-0.256
HMDRELVALVQKALSQLSEQQRRIVELHVMEGMKYLEIADLLQLSENTVRTHLKRAYKILRENH	-0.921
HMDRERFIKLGREIARAAFENVGKKATDKVLNSAAKKLRLEDGDEVLARLGSAEIEARSVVQAVYPDLI	0.336
HMDRKARRKYIEQVVNDRKIETQEELLKLLTEAGFETTQATISRDIHALNIVKANDGDGHTHYVQLH	0.0264
HMDRKEEIIIVTLKLASQIGLSNVSMEQIAKQVGIKKPSLYNHFKSKDEIIDAMYEYLREKSKN	-1.16

Sequence	soluble fraction (log2)
HMDRMIPPYGLEVTYDKTTHIIFPSAVRYVDLGSPNLIAGKADGSENVIRVKATRKNFREETNMSVITE	-0.0773
HMDRPEPLYIVNGKEVQTLEEAFELGRTLGSAKKGTQVRLRRLLPEEGVEKYGEKGRNGVFEFMVSA	0.385
HMDRPLRTKEHFARFAGEQVVVKTSSPIDGRSSFTGTLEGMEGDDVIVEVDGSRIAIGYSLIKRAHVVG	0.406
HMDRRFFVAEENYKRLDVFLSERMEEFTRSRIKKLIDEGHVELNGKSAKAGAEIRPGDEVAAEIPEVKE	0.239
HMDRRIDIANAVKTALGSLPERQKTAIVLVHYEGFSGAETAKLLGISVEAVESLLARARRNLRQTLGP	-0.586
HMDRTIGEIGLVTETIDSTLESGRVMVDGLSWKARTSDNTVLEAGTRVQVKEIHGVTLTVEKA	0.147
HMDRTLTYTVSIEESDLRADQFLSRRGFSSHLLTRLRKNMEHLLINGTPSRTNTHLHEGDILTVHIVEE	-0.249
HMDRWTPLIVAVLIEGSHRFGELRSAIGGITPKVLTETLRSMERDGLVTRDQVPGVPPRVDYALTPLG	-0.434
HMDRYVDEEKRFYWRSGEAYLNFSKYKDRSLAEVATVDPGFLRWMMEADFSPETKQIVERALEGEFPQKK	-0.244
HMDSADADLLRRIEDLLSSRRSVIREARLADMLGVPRDQVARALDLLQERGVIGLTTDSGMKRIAFRRN	0.111
HMDSAQLARWAATILAQNGRKITPSTMNLFLERVGDDMENIRMELEKLISYTMGSEVVTAEDVKVITTVQ	-0.82
HMDSAVLQKHLVKLIELHAPIKARNLAKILADEFGKHVDRSAVNSALYSLKAERKVEVNSSYEWSLD	0.252
HMDSDRAARLSSLTPQQFRVLRMVSEGQLNKQIAYQLNISEATVKSHVSAILQKLGVNSRTQAVILATRLD	0.147
HMDSEQLSGLVNMGFSVYQAKTALEMFDNDIERAANYL	-0.871
HMDSERTALLSSDRTSFTAREAALLIGVSQRDIYRMIEDELLDSFTVGKMIRIRRSALEWWLS	-1.46
HMDSFEEGTYRKNQRGFGFVKIENQEDEIFISKENSLNALNGDRVIVEIIEDKDRTKRAEGKIKKILKHE	-0.086
HMDSGLLSAREREVAGLVLSGMTYAEIGEAIFISPRTAEHHIARIRRRLGATSRTDLIAKLQAIVGID	-1.42
HMDSGVPEWLASALRASPVAWKNFLALPPSHQRRYVGWISSARRDETRNRRIAEAISLLVEHKRLG	0.0211
HMDSIKDQIYQILKEDILTGELRSGEQLVEQTIAARFNTSRSPVREAIKQLTGDGLVINITNKGTFVK	-0.0915
HMDSISEQIYSIIKEEILLAKRKPGEQINPRKLADEFETSVMPIRDALNQLANEGLVIRKPRVGFFVR	-0.177
HMDSITEADLLRWAHALSGIARTGLGFTESRYERERYEEVLAVAADILAASSRSHDRAALVDEWLKMVGV	-1.55
HMDSKKNLLGKNGLAFTTLRPAGTVLIDGQRHDVISNGDMIPKGATVRVIAIEGASITVEALPD	-0.309
HMDSMATVPDLVGKTEDEAKALANDAHLGVQMAGEEASDQEKGKISRQETAAGTQVAEYTTVKYWVSTGTQ	0.154
